We go through six molecules from patent US20230131056A1 (Stanford University, published 2023).

Where two headings read alike, the source gives them in different places.

Assay [1] concerns the target T1, PD-L2-Fc (human PD-L2) (human, UniProt Q9BQ51 20-220, limits assumed).
T1 construct: not shown: Fc portion
T1 sequence (looked up): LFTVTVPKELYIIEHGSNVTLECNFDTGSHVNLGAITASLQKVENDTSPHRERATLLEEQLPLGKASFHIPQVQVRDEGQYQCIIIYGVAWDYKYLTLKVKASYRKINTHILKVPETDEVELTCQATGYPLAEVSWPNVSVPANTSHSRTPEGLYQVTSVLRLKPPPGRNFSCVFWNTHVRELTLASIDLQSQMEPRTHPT
The assay can be described thus: yeast surface display, flow cytometry titration with soluble PDL2 (cell binding A.U. against PDL2 concentration).

Assay [2] deals with T1, PD-L2-Fc (human PD-L2). In words: yeast surface display binding assay for PDL2 (summary list).
The target in assay [3] is T1, PD-L2-Fc (human PD-L2). In words: yeast surface display, flow cytometry titration with soluble PDL2.
Assay [4] has as its target T2, PDL1-Fc (human PD-L1) (human, UniProt Q9NZQ7 19-238, limits assumed).
T2 construct: not shown: Fc portion
In words: yeast surface display, flow cytometry titration with soluble PDL1 (cell binding A.U. against PDL1 concentration).

Assay [5] addresses T1, PD-L2-Fc (human PD-L2). In words: yeast surface display, flow cytometry titration with soluble PDL2 (cell binding A.U. against PDL2 concentration). This is another data set of the same source.
Assay [6] has as its target T2, PDL1-Fc (human PD-L1). The assay can be described thus: yeast surface display binding assay for PDL1 (summary list).
The target of assay [7] is T1, PD-L2-Fc (human PD-L2). The assay can be described thus: yeast surface display, flow cytometry titration with soluble PDL2. The source holds these as a separate data set.
The target of assay [8] is T2, PDL1-Fc (human PD-L1). In words: yeast surface display, flow cytometry titration with soluble PDL1 (cell binding A.U. against PDL1 concentration). This is another data set of the same source.
Assay [9] concerns the target T1, PD-L2-Fc (human PD-L2). In words: yeast surface display, flow cytometry titration with soluble PDL2. The source holds these as a separate data set.
Assay [10] concerns the target T1, PD-L2-Fc (human PD-L2). In words: yeast surface display, flow cytometry titration with soluble PDL2 (cell binding A.U. against PDL2 concentration). The source holds these as a separate data set.
For assay [11], the target named is T2, PDL1-Fc (human PD-L1). The assay can be described thus: yeast surface display, flow cytometry titration with soluble PDL1 (cell binding A.U. against PDL1 concentration). The source holds these as a separate data set.
In assay [12] the target is T1, PD-L2-Fc (human PD-L2). The assay can be described thus: yeast surface display, flow cytometry titration with soluble PDL2. The source holds these as a separate data set.
Assay [13] deals with T1, PD-L2-Fc (human PD-L2). In words: yeast surface display, flow cytometry titration with soluble PDL2 (cell binding A.U. against PDL2 concentration). This is another data set of the same source.
For assay [14], the target named is T2, PDL1-Fc (human PD-L1). In words: yeast surface display, flow cytometry titration with soluble PDL1.
The target in assay [15] is T1, PD-L2-Fc (human PD-L2). In words: yeast surface display, flow cytometry titration with soluble PDL2 (cell binding A.U. against PDL2 concentration). This is another data set of the same source.
Assay [16] deals with T1, PD-L2-Fc (human PD-L2). In words: yeast surface display, flow cytometry titration with soluble PDL2. This is another data set of the same source.
Assay [17] deals with T2, PDL1-Fc (human PD-L1). The assay can be described thus: yeast surface display, flow cytometry titration with soluble PDL1 (cell binding A.U. against PDL1 concentration). The source holds these as a separate data set.
Assay [18] concerns the target T2, PDL1-Fc (human PD-L1). In words: yeast surface display, flow cytometry titration with soluble PDL1. This is another data set of the same source.
The target in assay [19] is T1, PD-L2-Fc (human PD-L2). The assay can be described thus: yeast surface display, flow cytometry titration with soluble PDL2 (cell binding A.U. against PDL2 concentration). The source holds these as a separate data set.
The target of assay [20] is T2, PDL1-Fc (human PD-L1). In words: yeast surface display, flow cytometry titration with soluble PDL1 (cell binding A.U. against PDL1 concentration). This is another data set of the same source.

T2 sequence (Q9NZQ7 19-238 limits assumed): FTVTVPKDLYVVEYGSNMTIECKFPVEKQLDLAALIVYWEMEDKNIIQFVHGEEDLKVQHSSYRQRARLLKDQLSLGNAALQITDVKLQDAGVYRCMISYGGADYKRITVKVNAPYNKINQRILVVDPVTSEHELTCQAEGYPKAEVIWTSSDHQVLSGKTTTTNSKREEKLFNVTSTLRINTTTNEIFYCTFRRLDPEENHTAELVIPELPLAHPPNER

B1: Clone #3 (128-6 mutations, yeast displayed sPD-1 mutant) (receptor)
chain: LDSPDRPWNPPTFSPALLVVTEGDNATFTCSFSNTSESFVLNWYRMSPSNQTDKLAAFPEDRGQLGQDCRFRVTQLPNGRDFHMSVVRARRNDSGTYLCSAIVLAPKIQIKESLRVELRVTERRAEVPTAHPSPSPRPAGQFQTLV
In the case of B1, the Kd in assay [1] and in assay [2] was 1.1 nM in each case. In addition, the “EC50 (read off the curve)” value in assay [3] was approximately 1 nM.

B2: Clone #1 (121-5 mutations, yeast displayed sPD-1 mutant) (receptor)
chain: LDSPDRPWNPPTFSPALLVVTEGDNATFTCSFSNTSESFVLNWYRMSPSNQTDKLAAFPEDRSQLGQDCRFRVTQLPNGRDFHMSVVRARRNDSGTYLCSAIVLAPKIQIKESLRVELRVTERRAEVPTAHPSPSPRPAGQFQTLV
In the case of B2, the Kd in assay [4] came out at 0.03 nM; in [5], 1.4 nM; in assay [2], 1.4 nM; in assay [6], 0.03 nM. The “EC50 (read off the curve)” value in [7] was approximately 1 nM.

B3: Clone #4 (100-4 mutations, yeast displayed sPD-1 mutant) (receptor)
chain: LDSPDRPWNPPTFSPALLVVTEGDNATFTCSFSNTSESFVLNWYRMSPSNQTDKLAAFPEDRSQPGQDCRFRVTQLPNGRDFHMSVVRARRNDSGTYLCSAIVLAPKIQIKESLRVELRVTERRAEVPTAHPSPSPRPAGQFQTLV
Regarding B3, the dissociation constant (Kd) in [2] worked out at 0.87 nM; in [6], 0.08 nM; in [8] it was 0.08 nM; in [10] it was 0.87 nM. Besides, the “EC50 (read off the curve)” value in assay [9] is approximately 0.9 nM.

B4: Clone #5 (62-3 mutations, yeast displayed sPD-1 mutant) (receptor)
chain: LDSPDRPWNPPTFSPALLVVTEGDNATFTCSFSNTSESFVLNWYRMSPSNQTDKLAAFPEDRSQPGQDCRFRVTQLPNGRDFHMSVVRARRNDSGTYLCSAIVLAPKIQIKESLRAELRVTERRAEVPTAHPSPSPRPAGQFQTLV
On to B4, for which the Kd in [11] was 0.8 nM; in assay [13], 4.1 nM; in assay [2] it was 4.1 nM; in assay [6], 0.8 nM. The results for the concentration giving a half-maximal response (EC50 (read off the curve)) in assay [12] and in assay [14] were approximately 4 nM and approximately 0.8 nM, respectively.

B5: original mutant sPD-1 (7 mutations, yeast displayed) (receptor)
chain: LDSPDRPWNPPTFSPALLVVTEGDNATFTCSFSNTSEGFVLNWYRMSPSNQTDKLAAFPEDRGQLGQDCRFRVTQLPNGRDFHMSVVRARRNDSGTYLCSAIVLAPKIQIKESLRVELRVTERRAEVPTAHPSPSPRPAGQFQTLV
notes: also called initial Mutant PD-1 clone; 2-7 mutations
On to B5, for which the dissociation constant Kd was 2.6 nM in [15], 2.6 nM in assay [2], 0.44 nM in assay [6] and 0.44 nM in [17]. Further, the concentration for a half-maximal effect (EC50 (read off the curve)) was approximately 3 nM in assay [16] and approximately 0.4 nM in [18].

B6: Clone #2 (120-5 mutations, yeast displayed sPD-1 mutant) (receptor)
chain: LDSPDRPWNPPTFSPALLVVTEGDNATFTCSFSNTSESFVLNWYRMSPSNQTDKLAAFPEDRGQPGQDCRFRVTQLPNGRDFHMSVVRARRNDSGTYLCSAIVLAPKIQIKESLRVELRVTERRAEVPTAHPSPSPRPAGQFQTLV
For B6, the Kd in assay [2] turned out to be 0.11 nM; in [6], 0.12 nM; in assay [19] it was 0.11 nM; in [20], 0.12 nM.
